According to patent US20120288511A1 (INDIANA UNIVERSITY RESEARCH AND TECHNOLOGY, published 2012):
Like-named read-outs stand apart in the source and are kept apart here. Non-standard residues stand in square brackets, D forms with d. No end group written: not given here. *: point of attachment. Palmitoyl = CCCCCCCCCCCCCCCC(=O)*; Aib = CC(C)(N)C(=O)O

Columns and labels:
Experiment in all cases: cell-based or functional assay
glucagon receptor [1] = molecular target: T1, glucagon receptor (human, UniProt P47871 26-477)
GLP-1 receptor [2] = molecular target: T2, GLP-1 receptor (human, UniProt P43220 24-463)
glucagon receptor [3] = molecular target: T1, glucagon receptor; remark: listed apart in the source
GLP-1 receptor [4] = molecular target: T2, GLP-1 receptor; remark: listed apart in the source
glucagon receptor [5] = molecular target: T1, glucagon receptor; remark: listed apart in the source
glucagon receptor [6] = molecular target: T1, glucagon receptor; remark: listed apart in the source
GLP-1 receptor [7] = molecular target: T2, GLP-1 receptor; remark: listed apart in the source
GLP-1 receptor [8] = molecular target: T2, GLP-1 receptor; remark: listed apart in the source
glucagon receptor [9] = molecular target: T1, glucagon receptor; remark: listed apart in the source
GLP-1 receptor [10] = molecular target: T2, GLP-1 receptor; remark: listed apart in the source
glucagon receptor [11] = molecular target: T1, glucagon receptor; remark: listed apart in the source
GLP-1 receptor [12] = molecular target: T2, GLP-1 receptor; remark: listed apart in the source
Target sequence in this assay (P43220 24-463): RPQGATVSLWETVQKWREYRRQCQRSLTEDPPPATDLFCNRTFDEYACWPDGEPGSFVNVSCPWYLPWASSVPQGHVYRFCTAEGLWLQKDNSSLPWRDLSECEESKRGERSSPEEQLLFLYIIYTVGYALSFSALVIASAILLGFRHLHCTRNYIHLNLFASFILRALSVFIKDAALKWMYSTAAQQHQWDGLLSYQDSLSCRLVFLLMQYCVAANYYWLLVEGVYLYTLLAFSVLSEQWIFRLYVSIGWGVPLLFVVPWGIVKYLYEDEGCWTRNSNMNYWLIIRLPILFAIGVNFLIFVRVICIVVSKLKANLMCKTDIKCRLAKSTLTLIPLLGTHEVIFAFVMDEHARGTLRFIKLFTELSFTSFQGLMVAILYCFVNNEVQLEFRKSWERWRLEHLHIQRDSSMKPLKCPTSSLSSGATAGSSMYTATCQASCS

T1 sequence (P47871 26-477): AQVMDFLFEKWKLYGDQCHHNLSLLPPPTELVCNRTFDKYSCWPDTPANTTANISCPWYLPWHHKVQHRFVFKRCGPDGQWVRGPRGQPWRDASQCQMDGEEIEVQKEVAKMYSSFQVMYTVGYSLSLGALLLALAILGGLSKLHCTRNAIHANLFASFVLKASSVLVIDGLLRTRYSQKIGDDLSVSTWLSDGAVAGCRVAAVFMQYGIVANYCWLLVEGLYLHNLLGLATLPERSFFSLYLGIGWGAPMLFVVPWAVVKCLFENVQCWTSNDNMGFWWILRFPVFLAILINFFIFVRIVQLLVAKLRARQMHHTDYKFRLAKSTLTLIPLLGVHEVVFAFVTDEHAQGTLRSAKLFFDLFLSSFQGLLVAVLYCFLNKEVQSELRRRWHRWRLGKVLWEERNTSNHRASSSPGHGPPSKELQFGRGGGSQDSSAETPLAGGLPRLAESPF

B1: Glucagon Analog 37 (peptide)
peptide: HSQGTFTSDKSKYLDEEAVRLFIEWLMNT-NH2
modifications: also: Lys-γGlu-C16 (K(B)) at unstated position
- EC50 (cAMP luciferase reporter) (glucagon receptor [1]): 0.119 nM
- EC50 (cAMP luciferase reporter) (GLP-1 receptor [2]): 0.011 nM

B2: Glucagon Analog 86 (peptide)
peptide: HSQGTFTSDYSKYLD[Aib]KAVRLFICWLLDT-NH2
- EC50 (cAMP luciferase reporter) (glucagon receptor [1]): 0.035 nM
- percent in parentheses (not explained) (glucagon receptor [1]): 43%
- EC50 (cAMP luciferase reporter) (GLP-1 receptor [2]): 0.035 nM
- percent in parentheses (not explained) (GLP-1 receptor [2]): 106%

B3: Peptide 12 (peptide)
peptide: KAHSEGTFTSDYSKYLDSRRAQDFVQWLMNT
modifications: not fully specified; also: further groups not given here
- EC50 (cAMP luciferase reporter) (glucagon receptor [3]): 85.9 nM
- EC50 (cAMP luciferase reporter) (GLP-1 receptor [4]): 41.7 nM

B4: Peptide 13 (peptide)
peptide: B3 peptide
modifications: not fully specified; also: further groups not given here
- EC50 (cAMP luciferase reporter) (glucagon receptor [3]): 30.7 nM
- EC50 (cAMP luciferase reporter) (GLP-1 receptor [4]): 14.3 nM

B5: Glucagon Analog 84 (peptide)
peptide: HSQGTFTSDYSKYLDEQAVRLFICWLLDGGPSSGAPPPS-NH2
modifications: not fully specified; also: further groups not given here
- EC50 (cAMP luciferase reporter) (glucagon receptor [1]): 0.132 nM
- percent in parentheses (not explained) (glucagon receptor [1]): 14.4%
- EC50 (cAMP luciferase reporter) (GLP-1 receptor [2]): 0.006 nM
- percent in parentheses (not explained) (GLP-1 receptor [2]): 600%

B6: Glucagon Analog 57 (peptide)
peptide: HSQGTFTSDKSKYLDEQAAKEFICWLLDT
modifications: also: DPP-IV-resistant residue at position 1 or 2, not given here
- % Relative Activity vs native glucagon (glucagon receptor [5]): 1%
- EC50 (cAMP luciferase reporter) (glucagon receptor [5]): 4.8 nM

B7: Glucagon Analog 39 (peptide)
peptide: HSQGTFTSDK(Palmitoyl)SKYLDEEAVRLFIEWLMNT-NH2
- EC50 (cAMP luciferase reporter) (glucagon receptor [1]): 2.54 nM
- EC50 (cAMP luciferase reporter) (GLP-1 receptor [2]): 0.033 nM

B8: Glucagon Analog 65 (peptide)
peptide: HSQGTFTSDYSKYLDEKRAKEFVQWLMNT-NH2
modifications: not fully specified; also: further groups not given here
- % Relative Activity vs native glucagon (glucagon receptor [6]): 264%
- EC50 (cAMP luciferase reporter) (glucagon receptor [6]): 0.053 nM
- % Relative Activity vs native GLP-1 (GLP-1 receptor [7]): 64%
- EC50 (cAMP luciferase reporter) (GLP-1 receptor [7]): 0.036 nM

B9: Glucagon Analog 53 (peptide)
peptide: HSQGTFTSDKSKYLDEQAAKEFICWLLDT
modifications: also: DPP-IV-resistant residue at position 1 or 2, not given here
- % Relative Activity vs native glucagon (glucagon receptor [5]): 411%
- EC50 (cAMP luciferase reporter) (glucagon receptor [5]): 0.009 nM
- % Relative Activity vs native GLP-1 (GLP-1 receptor [8]): 708%
- EC50 (cAMP luciferase reporter) (GLP-1 receptor [8]): 0.012 nM

B10: Glucagon Analog 81 (peptide)
peptide: HAQGTFTSDKSKYLDERAAQDFVC(PEG 40 kDa)WLLDT-NH2
modifications: also: other non-coded residues as, not given here
- % Relative Activity vs native glucagon (glucagon receptor [9]): 51.4%
- EC50 (cAMP luciferase reporter) (glucagon receptor [9]): 37000 nM
- % Relative Activity vs native GLP-1 (GLP-1 receptor [10]): 300%
- EC50 (cAMP luciferase reporter) (GLP-1 receptor [10]): 0.012 nM

B11: Glucagon Analog 83 (peptide)
peptide: HSQGTFTSDKSKYLDEQAAKEFICWLLDTE-NH2
modifications: not fully specified; also: further groups not given here
- % Relative Activity vs native glucagon (glucagon receptor [9]): 61%
- EC50 (cAMP luciferase reporter) (glucagon receptor [9]): 28000 nM
- % Relative Activity vs native GLP-1 (GLP-1 receptor [10]): 288%
- EC50 (cAMP luciferase reporter) (GLP-1 receptor [10]): 0.024 nM

B12: Glucagon Analog 59 (peptide)
peptide: HAQGTFTSDKSKYLDERAAQDFVCWLLDT
modifications: not fully specified (C-terminus)
- % Relative Activity vs native glucagon (glucagon receptor [11]): 490%
- EC50 (cAMP luciferase reporter) (glucagon receptor [11]): 0.01 nM
- % Relative Activity vs native GLP-1 (GLP-1 receptor [12]): 484%
- EC50 (cAMP luciferase reporter) (GLP-1 receptor [12]): 0.019 nM

B13: Peptide 1 (peptide)
peptide: HSQGTFTSDYSKYLDSKRAQEFVQWLMNT-NH2
- EC50 (cAMP luciferase reporter) (GLP-1 receptor [4]): 0.13 nM

B14: Glucagon Analog 78 (peptide)
peptide: HSQGTFTSDKSKYLDEQAAKEFIC(PEG 40 kDa)WLLDTGG-NH2
modifications: not fully specified; also: further groups not given here
- % Relative Activity vs native glucagon (glucagon receptor [9]): 44%
- EC50 (cAMP luciferase reporter) (glucagon receptor [9]): 140000 nM
- % Relative Activity vs native GLP-1 (GLP-1 receptor [10]): 196%
- EC50 (cAMP luciferase reporter) (GLP-1 receptor [10]): 0.026 nM

B15: Glucagon Analog 85 (peptide)
peptide: HSQGTFTSDKSKYLDEQAVRLFIC(PEG 40 kDa)WLLDT-NH2
modifications: also: acylated amino acid at position 10, acyl group not given here
- EC50 (cAMP luciferase reporter) (glucagon receptor [1]): 0.107 nM
- percent in parentheses (not explained) (glucagon receptor [1]): 16%
- EC50 (cAMP luciferase reporter) (GLP-1 receptor [2]): 0.013 nM
- percent in parentheses (not explained) (GLP-1 receptor [2]): 284%

B16: Glucagon Analog 66 (peptide)
peptide: HSQGTFTSDYSKYLDSKRAQEFVQWLMNT-NH2
modifications: also: non-coded residues and acylation only
- EC50 (cAMP luciferase reporter) (GLP-1 receptor [7]): 0.13 nM

B17: Glucagon Analog 68 (peptide)
peptide: HSQGTFTSDYSKYLDERRAKEFVQWLMNT-NH2
modifications: not fully specified; also: further groups not given here
- % Relative Activity vs native glucagon (glucagon receptor [6]): 104%
- EC50 (cAMP luciferase reporter) (glucagon receptor [6]): 0.068 nM
- % Relative Activity vs native GLP-1 (GLP-1 receptor [7]): 44%
- EC50 (cAMP luciferase reporter) (GLP-1 receptor [7]): 0.075 nM

B18: Glucagon Analog 55 (peptide)
peptide: HSQGTFTSDKSKYLDEQAAKEFICWLLDTG
modifications: not fully specified
- % Relative Activity vs native glucagon (glucagon receptor [5]): 7%
- EC50 (cAMP luciferase reporter) (glucagon receptor [5]): 0.55 nM
- % Relative Activity vs native GLP-1 (GLP-1 receptor [8]): 16%
- EC50 (cAMP luciferase reporter) (GLP-1 receptor [8]): 0.516 nM

B19: Glucagon Analog 79 (peptide)
peptide: HSQGTFTSDKSKYLDEQAAKEFIC(PEG 40 kDa)WLLDT-NH2
modifications: not fully specified; also: further groups not given here
- % Relative Activity vs native glucagon (glucagon receptor [9]): 26%
- EC50 (cAMP luciferase reporter) (glucagon receptor [9]): 240000 nM
- % Relative Activity vs native GLP-1 (GLP-1 receptor [10]): 41%
- EC50 (cAMP luciferase reporter) (GLP-1 receptor [10]): 0.125 nM

B20: Glucagon Analog 34 (peptide)
peptide: HSQGTFTSDYSKYLDEEAVRLFICWLMNT-NH2
modifications: also: DPP-IV-resistant residue at position 1 or 2
- EC50 (cAMP luciferase reporter) (glucagon receptor [1]): 0.404 nM
- EC50 (cAMP luciferase reporter) (GLP-1 receptor [2]): 0.018 nM

B21: Glucagon Analog 67 (peptide)
peptide: HSQGTFTSDYSKYLDERRAKDFVQWLMNT-NH2
modifications: not fully specified; also: further groups not given here
- % Relative Activity vs native glucagon (glucagon receptor [6]): 93%
- EC50 (cAMP luciferase reporter) (glucagon receptor [6]): 0.077 nM
- % Relative Activity vs native GLP-1 (GLP-1 receptor [7]): 47%
- EC50 (cAMP luciferase reporter) (GLP-1 receptor [7]): 0.071 nM

B22: Glucagon Analog 56 (peptide)
peptide: HSQGTFTSDKSKYLDEQAAKEFICWLLDTGG
modifications: not fully specified
- % Relative Activity vs native glucagon (glucagon receptor [5]): 272%
- EC50 (cAMP luciferase reporter) (glucagon receptor [5]): 0.018 nM
- % Relative Activity vs native GLP-1 (GLP-1 receptor [8]): 125%
- EC50 (cAMP luciferase reporter) (GLP-1 receptor [8]): 0.068 nM

B23: Peptide 14 (peptide)
peptide: KHSQETFTSDYSKYLDSRRAQDFVQWLMNT
modifications: not fully specified; amidated unless FIG. 1 shows OH; lactam, D-residues, Orn/Dab only as drawn in FIG. 1
- EC50 (cAMP luciferase reporter) (GLP-1 receptor [4]): 33 nM

B24: Glucagon Analog 32 (peptide)
peptide: HSQGTFTSDYSKYLDEEAVRLFICWLMNT-NH2
modifications: also: DPP-IV-resistant residue at position 1 or 2
- EC50 (cAMP luciferase reporter) (glucagon receptor [1]): 0.22 nM
- EC50 (cAMP luciferase reporter) (GLP-1 receptor [2]): 0.007 nM

B25: Glucagon Analog 61 (peptide)
peptide: HSQGTFTSDYSKYLDEKRAKEFVCWLLDGGPSSGAPPPS-NH2
modifications: not fully specified; also: further groups not given here
- % Relative Activity vs native glucagon (glucagon receptor [6]): 88%
- EC50 (cAMP luciferase reporter) (glucagon receptor [6]): 0.017 nM
- % Relative Activity vs native GLP-1 (GLP-1 receptor [7]): 39%
- EC50 (cAMP luciferase reporter) (GLP-1 receptor [7]): 0.096 nM

B26: Peptide 15 (peptide)
peptide: B23 peptide
modifications: not fully specified; amidated unless FIG. 1 shows OH; lactam, D-residues, Orn/Dab only as drawn in FIG. 1
- EC50 (cAMP luciferase reporter) (GLP-1 receptor [4]): 73.4 nM

B27: Glucagon Analog 87 (peptide)
peptide: HSQGTFTSDYSKYLDEQAVRLFICWLLDT-NH2
modifications: not fully specified; also: further groups not given here
- EC50 (cAMP luciferase reporter) (glucagon receptor [1]): 0.021 nM
- percent in parentheses (not explained) (glucagon receptor [1]): 71%
- EC50 (cAMP luciferase reporter) (GLP-1 receptor [2]): 0.013 nM
- percent in parentheses (not explained) (GLP-1 receptor [2]): 284%

B28: Glucagon Analog 82 (peptide)
peptide: HSQGTFTSDKSKYLDEQAAKEFICWLLDE-NH2
modifications: not fully specified; also: further groups not given here
- % Relative Activity vs native glucagon (glucagon receptor [9]): 121%
- EC50 (cAMP luciferase reporter) (glucagon receptor [9]): 14000 nM
- % Relative Activity vs native GLP-1 (GLP-1 receptor [10]): 345%
- EC50 (cAMP luciferase reporter) (GLP-1 receptor [10]): 0.02 nM

B29: Peptide 16 (peptide)
peptide: HSQKTFTEDYSKYLDSRRAQDFVQWLMNT
modifications: not fully specified; also: further groups not given here
- EC50 (cAMP luciferase reporter) (GLP-1 receptor [4]): 121 nM
